Biological target: collagen
Assay: SPR (Biacore 2000), collagen immobilised on CM-3 chip, peptide as analyte, from on-off binding kinetics

Kd: 1200 nM
Binder: RRANAALKAGELYKSILYGC [peptide … (SILY)]

Source: patent US20150038427A1
